According to patent publication US20220251184A1:

Legend:
[1] = target: human BMP6 (R&D Systems, Cat #507-BP) (human) (UniProt P22004); assay: SPR (MASS-1), mAb captured on anti-human Fc, hBMP6 in solution, 25 C
[2] = target: human BMP6 (R&D Systems, Cat #507-BP) (human) (UniProt P22004); assay: SPR (Biacore 3000), premix of 400 nM mAb and 10 nM hBMP6 over immobilised hHJV-hFc (competitor), 25 C
[3] = target: human BMP6 (R&D Systems, Cat #507-BP) (human) (UniProt P22004); assay: SPR (Biacore 3000), blocking of hBMP6 binding to immobilised hActR2A-hFc (competitor) by 400 nM mAb, 25 C
[4] = target: human BMP6 (R&D Systems, Cat #507-BP) (human) (UniProt P22004); assay: SPR (Biacore 3000), blocking of hBMP6 binding to immobilised hActR2B-hFc (competitor) by 400 nM mAb, 25 C
[5] = target: human BMP6 (R&D Systems, Cat #507-BP) (human) (UniProt P22004); assay: SPR (Biacore 3000), premix of 400 nM mAb and 10 nM hBMP6 over immobilised hActR2B-hFc (competitor), 25 C
[6] = target: human BMP6 (R&D Systems, Cat #507-BP) (human) (UniProt P22004); assay: SPR (Biacore 3000), blocking of hBMP6 binding to immobilised hHJV-hFc (competitor) by 400 nM mAb, 25 C
[7] = target: mouse BMP6 (R&D Systems, Cat #6325-BM) (mouse) (UniProt P20722); assay: SPR (MASS-1), mAb captured on anti-human Fc, mBMP6 in solution, 37 C
[8] = target: human BMP6 (R&D Systems, Cat #507-BP) (human) (UniProt P22004); assay: SPR (MASS-1), mAb captured on anti-human Fc, hBMP6 in solution, 37 C
[9] = target: human BMP6 (R&D Systems, Cat #507-BP) (human) (UniProt P22004); assay: SPR (Biacore 3000), premix of 400 nM mAb and 10 nM hBMP6 over immobilised hActR2A-hFc (competitor), 25 C
[10] = target: mouse BMP6 (R&D Systems, Cat #6325-BM) (mouse) (UniProt P20722); assay: SPR (MASS-1), mAb captured on anti-human Fc, mBMP6 in solution, 25 C

human BMP6 (R&D Systems, Cat #507-BP) (human), sequence (P22004 375-513 limits assumed): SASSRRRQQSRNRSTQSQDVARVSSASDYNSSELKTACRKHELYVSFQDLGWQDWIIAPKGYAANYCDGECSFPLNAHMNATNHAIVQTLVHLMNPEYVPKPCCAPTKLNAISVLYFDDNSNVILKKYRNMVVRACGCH
mouse BMP6 (R&D Systems, Cat #6325-BM) (mouse), sequence (P20722 372-510 limits assumed): as the sequence (P22004 375-513 limits assumed) above, with A21S, V23G, S25G, A26S, S31G, R39K counted along it

## Isotype Control mAb (antibody)
[1]
  60 nM hBMP6 Bound (RU): 2 RU
[2]
  400 nM mAb + 10 nM hBMP-6 Binding (RU): 299 RU
[3]
  % Blocking: 43%
[4]
  % Blocking: 25%
[5]
  400 nM mAb + 10 nM hBMP-6 Binding (RU): 187 RU
[6]
  % Blocking: 41%
[7]
  60 nM mBMP6 Bound (RU): 3 RU
[8]
  60 nM hBMP6 Bound (RU): 2 RU
[9]
  400 nM mAb + 10 nM hBMP-6 Binding (RU): 246 RU
[10]
  60 nM mBMP6 Bound (RU): 3 RU
